Assay results reported in the supplement of paper PMC9732359.
± gives the uncertainty stated by the source.

Test: protein stability index of a GFP-peptide fusion (yeast GPS) (PSI 1-4); higher = more stable; sorted into four equal gates, so the index is relative within each strain
Method in brief: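 Mid-log yeast cultures in leucine-free medium, carrying a pooled plasmid library, were sorted into four equal gates by their GFP/Cherry fluorescence ratio. Each plasmid expressed Cherry along with GFP fused upstream of a tiled 17-residue yeast protein peptide. Plasmids recovered from each gate were PCR-amplified and Illumina-sequenced, with reads assigned to strains by barcodes. The protein stability index was obtained by summing each gate's read frequency weighted by its gate number.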

Sequence | protein stability index (doa10∆) | protein stability index (pdr5∆) | protein stability index (san1∆) | protein stability index (ubr1∆)
PQINILQPIKGESARRF [RPC40] | 2.17 ± 0.096 | 2.58 ± 0.1 | 2.43 ± 0.12 | 2.88 ± 0.12
PQKPVPLNVLQDQYKEG [SNF2] | 3.01 ± 0.07 | 3.33 ± 0.096 | 3.1 ± 0.086 | 2.94 ± 0.044
PQTPLVEPVTERTKLQE [SNU114] | 3.29 ± 0.15 | 3.07 ± 0.18 | 3.08 ± 0.1 | 3.31 ± 0.13
PQVLINRDPVKHAEFDL [SIR2] | 2.39 ± 0.14 | 3.04 ± 0.093 | 3.08 ± 0.12 | 2.79 ± 0.1
PQYINYSSIPSLQDSII [SSN2] | 2.97 ± 0.13 | 2.79 ± 0.12 | 2.9 ± 0.21 | 3.16 ± 0.086
PRALQPSQFGMLCTADT [RET1] | 1.87 ± 0.1 | 1.57 ± 0.05 | 2.02 ± 0.13 | 2.18 ± 0.051
PREDKENNRLLFECRTC [RPB9] | 3.29 ± 0.14 | 3.17 ± 0.13 | 3.02 ± 0.17 | 3.29 ± 0.16
PRQRMEEVVSNDEGVWD [PRP8] | 3.45 ± 0.068 | 3.45 ± 0.056 | 2.87 ± 0.06 | 3.06 ± 0.048
PSCNNMLLITSGDSGVY [RPC11] | 1.32 ± 0.077 | 1.55 ± 0.22 | – | 2.24 ± 0.17
PSDWQRNSFIRDMIMKR [ITC1] | 3.01 ± 0.072 | 3.03 ± 0.073 | 3.21 ± 0.055 | 2.89 ± 0.047
PSEILHLILDKLNQKYD [GRR1] | 3.14 ± 0.096 | 2.48 ± 0.068 | 2.54 ± 0.19 | 2.46 ± 0.061
PSRQFDHYESNQLVAKL [SRB8] | 3.02 ± 0.061 | 2.85 ± 0.064 | 2.98 ± 0.064 | 3.17 ± 0.041
PSTAIHTSPHQPSDVKP [SIR4] | 2.81 ± 0.052 | 2.95 ± 0.049 | 2.76 ± 0.046 | 2.36 ± 0.034
PSYYGVRDTSPHGISVF [BRR2] | 1.35 ± 0.069 | 1.41 ± 0.057 | 2.29 ± 0.077 | 1.94 ± 0.045
PTESYLQYIIHDTLNNE [BRR2] | 2.22 ± 0.058 | 2.43 ± 0.07 | 2.37 ± 0.097 | 2.26 ± 0.065
PTFSTHAQLLLSDRITG [PRP8] | 1.7 ± 0.033 | 1.87 ± 0.036 | 1.57 ± 0.051 | 1.95 ± 0.031
PTKLLVSEVAKIMQEAT [PRE8] | 2.63 ± 0.067 | 2.58 ± 0.085 | 2.72 ± 0.11 | 2.73 ± 0.062
PTLPRSDRECPKCHSRE [RPB9] | 2.79 ± 0.052 | 2.92 ± 0.056 | 2.82 ± 0.053 | 2.84 ± 0.043
PTSPNYSPTSPSYSPTS [RPO21] | 2.78 ± 0.034 | 2.9 ± 0.031 | 3.064 ± 0.026 | 2.969 ± 0.026
PVGSYEREQCRAGGAAA [PRE7] | 3.02 ± 0.24 | 2.98 ± 0.18 | 3.32 ± 0.17 | 2.78 ± 0.097
PWFWLLPLWHLLNRIPR [POP1] | 2.57 ± 0.084 | 1.56 ± 0.054 | 1.33 ± 0.12 | 1.26 ± 0.046
PYFPGGSIAMARVLFDD [CYT1] | 2.29 ± 0.14 | 1.88 ± 0.1 | 2.61 ± 0.11 | 2.69 ± 0.093
PYGVYHPPFIKYACLAI [SIN4] | 1.42 ± 0.048 | 1.44 ± 0.04 | 1.46 ± 0.073 | 1.17 ± 0.034
PYLVANVVEVMDMNEIE [RPT5] | 2.86 ± 0.093 | 2.19 ± 0.063 | 1.91 ± 0.077 | 2.32 ± 0.069
QADLQAMDRAHRIGQKK [ISW2] | – | – | 3.14 ± 0.23 | –
QAELLQLAVKIINKVLD [YJL039C/NUP192] | 2.33 ± 0.25 | 3.09 ± 0.091 | 2.74 ± 0.13 | –
QAKLKKNVETLEEKILA [SMC4] | 3.09 ± 0.08 | 2.98 ± 0.077 | 3.13 ± 0.077 | 3.13 ± 0.066

Sequence | protein stability index (doa10∆) | protein stability index (pdr5∆) | protein stability index (san1∆) | protein stability index (ubr1∆)
QAPTTGFSFGSQLGGNK [YJL041W/NSP1] | 3.02 ± 0.051 | 3.01 ± 0.054 | 3.37 ± 0.045 | 3.17 ± 0.036
QAQAQAQAQAQAQAQAH [GAL11] | 2.84 ± 0.071 | 3.05 ± 0.084 | 2.84 ± 0.084 | 3.1 ± 0.1
QAQAQVYAQQSTVQTPI [PGD1] | 2.8 ± 0.052 | 2.91 ± 0.055 | 2.83 ± 0.048 | 2.95 ± 0.059
QASDPSKKKKNIKKKDT [RPC53] | 3.26 ± 0.17 | 3.5 ± 0.13 | 3.2 ± 0.088 | 3.3 ± 0.21
QCPVKSAEDQLYAITFR [QCR2] | 3.14 ± 0.12 | 2.83 ± 0.25 | 3.13 ± 0.14 | 3.09 ± 0.16
QCYKIYDLVILKSGLPL [YMR129W/POM152] | – | 2.04 ± 0.12 | 2.25 ± 0.14 | 1.29 ± 0.059
QDENIGLSMLAKLKELA [RPC31] | 3.14 ± 0.071 | 3.46 ± 0.074 | 3.05 ± 0.092 | 3.16 ± 0.053
QDIYYLAQTLKLWRKIA [RRI2] | 2.04 ± 0.057 | 2.17 ± 0.046 | 1.88 ± 0.07 | 1.63 ± 0.047
QDLILDLKKKLNSLKDE [SMC4] | 2.39 ± 0.083 | 2.82 ± 0.2 | 2.01 ± 0.076 | 1.57 ± 0.062
QDREITNWARTTFRNEY [MED8] | 2.49 ± 0.09 | 2.07 ± 0.083 | 2.47 ± 0.092 | 2.51 ± 0.096
QEELKKRQELEEASQQQ [MED2] | 2.96 ± 0.058 | 3.2 ± 0.076 | 2.47 ± 0.071 | 3.29 ± 0.046
QEGLAKFGACVAQGIMN [RPN2] | 1.79 ± 0.058 | 1.75 ± 0.042 | 1.88 ± 0.14 | 1.58 ± 0.051
QEKMDPNNSRDDYKDLT [IRR1] | 3.33 ± 0.078 | 3.27 ± 0.083 | 3.23 ± 0.066 | 3.25 ± 0.076
QELAKSIRSRRPYQVNV [PRE1] | 2.92 ± 0.14 | 2.88 ± 0.078 | 3.2 ± 0.14 | 3.16 ± 0.078
QELCYPDENHDNTSHDE [BRN1] | 3.23 ± 0.073 | 3.27 ± 0.061 | 2.98 ± 0.061 | 3.35 ± 0.056
QELLNAETLCFTVNVLY [RPN3] | 3.11 ± 0.075 | 2.75 ± 0.087 | 2.94 ± 0.065 | 2.87 ± 0.062
QEMIEISNVIKPNQTIM [SRP54] | 2.62 ± 0.23 | 2.21 ± 0.079 | – | 1.96 ± 0.1
QEQLKQMDQQLQYTALT [ARP7] | 2.71 ± 0.16 | 2.67 ± 0.25 | 2.55 ± 0.2 | 3 ± 0.18
QEQVYPDFKPWEHTAAE [SRB8] | 2.44 ± 0.16 | 2.94 ± 0.13 | 3.17 ± 0.076 | 2.93 ± 0.11
QERKDFLKKVMDTIQDK [ECM29] | 3.12 ± 0.13 | 3.41 ± 0.12 | 3.35 ± 0.11 | 3.17 ± 0.072
QETCDKLRARLVEYGFD [SMC2] | 2.17 ± 0.14 | 2.52 ± 0.093 | 1.96 ± 0.089 | 1.57 ± 0.034
QEWLANLKLISVSLVDE [SIR4] | 2.77 ± 0.057 | 1.87 ± 0.047 | 2.46 ± 0.056 | 1.67 ± 0.039
QFCGIKERNSLKKLKAM [BRR2] | 3 ± 0.23 | 3.25 ± 0.12 | 2.25 ± 0.27 | 2.99 ± 0.11
QFDIQSPLYMDTETFDT [YML103C/NUP188] | 3.11 ± 0.093 | 2.88 ± 0.064 | 3.02 ± 0.063 | 3.28 ± 0.06
QFLQLDNDGFSFLMRQF [ECM29] | 1.33 ± 0.042 | 1.54 ± 0.061 | 1.45 ± 0.072 | 1.83 ± 0.051
QFMKRFPMPYENEEFIT [ECM29] | 2.88 ± 0.062 | 2.83 ± 0.094 | 2.85 ± 0.083 | –
